Results as given in the supplement of paper PMC12042874.
± gives the uncertainty stated by the source.

Assay: amyloid nucleation score (Sup35N fusion, yeast selection) (log enrichment); library NNK2; higher = more nucleation; inactive = no reads after selection
Summary of the method: (§1)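 Growth for 7 days at 30°C on medium lacking adenine and uracil followed a 24-hour induction with 100 μM copper sulfate of psi-negative yeast expressing peptides of 20 random codons fused to Sup35N. Input and output plasmid inserts were sequenced with Illumina, and sequences with under 100 input reads were excluded. Nucleation score is the DiMSum log enrichment of output over input reads, centred on the mode score of non-aggregating sequences.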
Substance KSIAGNC has an amyloid nucleation score of -1.48 ± 0.78.
YTKSQGAFT gave an amyloid nucleation score of -0.135 ± 0.65.
For MFSPQLSALMILVSYMHDGW, the amyloid nucleation score was 2.04 ± 0.087.
For STCFLTFVY, the amyloid nucleation score was “inactive”.
Work on TGLIGEPYGWDRSTTGF yielded an amyloid nucleation score of 0.17 ± 0.43.
FYIMFLVRCYKDEPSTRANL gave an amyloid nucleation score of -0.796 ± 0.62.
In the case of DFLNWEDFCIMSECWNSTVQ, the amyloid nucleation score is reported as “inactive”.
In the case of CSWLLTH, the amyloid nucleation score is reported as -0.461 ± 0.48.
QYKIVVELYMLYNISKNVEG showed an amyloid nucleation score of 2.14 ± 0.16.
In the case of GSAMF, the amyloid nucleation score is reported as “inactive”.
With NWSNLEWWL the amyloid nucleation score was 0.054 ± 0.77.
Substance MDQNG has an amyloid nucleation score of -0.427 ± 0.79.
In the case of PNGFVFSCNRSPMAGMGIDE, the amyloid nucleation score is reported as -2.14 ± 1.1.
Work on NVVSEEIMVCIVVSDLKRFR yielded an amyloid nucleation score of 0.619 ± 0.29.
QLVNMRTCLLSRDLRLLELL showed an amyloid nucleation score of -0.318 ± 0.45.
YHVVAWSWTRSYV showed an amyloid nucleation score of 0.561 ± 0.4.
For IFHSESALWRHRYMGYVMVR, the amyloid nucleation score was -0.66 ± 0.45.
Substance NNSPVSPDGCLLGSSVQYWY has an amyloid nucleation score of -0.375 ± 1.1.
AYYYVLRFRCLFTFYPQLTA showed an amyloid nucleation score of -0.428 ± 0.39.
For PLYEELVWGRFRLMVYTGRF, the amyloid nucleation score was -0.193 ± 0.76.
GYMSYT gave an amyloid nucleation score of -0.863 ± 0.32.
For VMILGVYKNFMLIFELVPVY, the amyloid nucleation score was -1.01 ± 0.76.
For KDCISLDSIV, the amyloid nucleation score was “inactive”.
In the case of QIACDCNLGGKWFTDMCYFA, the amyloid nucleation score is reported as -0.94 ± 0.55.
In the case of KYTGNFGAVSL, the amyloid nucleation score is reported as 0.22 ± 0.65.
Work on INGCFDHPTSIETFSEEMWM yielded an amyloid nucleation score of -0.533 ± 0.55.
Substance CFSCLISWADMNSLLCYLEL has an amyloid nucleation score of -1.66 ± 0.48.
In the case of ICGVKRKKNVILSYFISMEY, the amyloid nucleation score is reported as “inactive”.
STTLSEIMIYAVTGG gave an amyloid nucleation score of -0.45 ± 0.31.
Substance KPEVRVEMQCNYVAWYTDMI has an amyloid nucleation score of -0.61 ± 0.37.
Work on DVGSCVRGYTGQSKNLWTYG yielded an amyloid nucleation score of 0.028 ± 0.79.
Work on SYIGFVSIGSNMNRCSFDKF yielded an amyloid nucleation score of -0.116 ± 0.29.
HVNRGYSLVTPRMEVDWQLS showed an amyloid nucleation score of 1.42 ± 0.15.
For RSTISYDSSAQYCGGWLGLW, the amyloid nucleation score was -0.717 ± 1.
For NVHRRMSEYVCVDRWEEWVR, the amyloid nucleation score was 0.811 ± 0.67.
DFDRSMRIARDNKRYGPVLV gave an amyloid nucleation score of -0.166 ± 1.1.
Work on FVYGQWPNRSRAISSTSMFK yielded an amyloid nucleation score of -0.723 ± 0.36.
SVFVNCNHWYIYSPWPSKRN showed an amyloid nucleation score of 8.715 ± 0.047.
For NNYATCNVHCMFMMI, the amyloid nucleation score was 10.18 ± 0.05.
In the case of RVPTVLFFLIVDFSCPPFSC, the amyloid nucleation score is reported as “inactive”.
With ILKIAARIYLGLWTVFDWCG the amyloid nucleation score was 0.523 ± 0.27.
Work on QFHADSRQGFNVSEMLCWDG yielded an amyloid nucleation score of -0.393 ± 0.49.
With YFILKFVQTGGNS the amyloid nucleation score was 4.12 ± 0.041.
With PSCFQDYKWQMWQLTRAWNF the amyloid nucleation score was -0.758 ± 0.55.
For RSKFLFYIYSGFEIRRKINT, the amyloid nucleation score was “inactive”.
Work on LCTGTCDTSAHVSSIYKFRD yielded an amyloid nucleation score of -0.712 ± 1.1.
For LTYIRMQVHLVDYDRDALG, the amyloid nucleation score was -1.32 ± 0.49.
KWITVYETVNCMSGWFIQDL gave an amyloid nucleation score of 6.622 ± 0.033.
In the case of EFNLLRYSVETNIISEKKLV, the amyloid nucleation score is reported as 0.129 ± 0.54.
For SMFNCNWYCGCCMCNLGCLA, the amyloid nucleation score was 7.334 ± 0.035.
For VCVLYLTSTGFLGQLY, the amyloid nucleation score was 2.74 ± 0.14.
With FVGTAQEEIHGFMNCIVELR the amyloid nucleation score was “inactive”.
SGLPMYCSYRYHSRLGNTYR gave an amyloid nucleation score of 2.92 ± 0.064.
With NVNMVMNNSGKSRLCISENY the amyloid nucleation score was -0.19 ± 1.
With LRNHSHA the amyloid nucleation score was 0.685 ± 0.41.
With YFNGL the amyloid nucleation score was “inactive”.
CELEGWSVGSRVNLLILIR showed an amyloid nucleation score of -0.213 ± 1.1.
In the case of YLMSFGPWGNYYFRSCKLWL, the amyloid nucleation score is reported as 6.42 ± 0.082.
With NWNVRRYVTPAFEFRGCV the amyloid nucleation score was 0.833 ± 0.74.
SSLGSSGAEKSRIGYIVIER showed an amyloid nucleation score of 0.261 ± 0.77.
For CSIGLRCGNVMLPTEWVSNC, the amyloid nucleation score was -0.763 ± 0.32.
TNSDSSTQKVIVMSLNAVVP showed an amyloid nucleation score of 6.11 ± 0.049.
For EFIEYTSFYWWNLLRLGVHS, the amyloid nucleation score was -0.61 ± 0.23.

Assay: amyloid nucleation score (Sup35N fusion, yeast selection) (log enrichment); library NNK1; higher = more nucleation; inactive = no reads after selection
Summary of the method: as §1
Substance CRTCRNQRMKDKSELSWLMS has an amyloid nucleation score of -0.589 ± 0.6.
With KITIGINS the amyloid nucleation score was 0.4 ± 0.33.
HYLISSCWIIRSGWADGTGR showed an amyloid nucleation score of 1.01 ± 0.15.
With DFYYNALIREVGQ the amyloid nucleation score was -0.825 ± 0.75.
With LFLFTGLSSRSLHMCIYEIL the amyloid nucleation score was -0.046 ± 0.34.
With GRRYELPGPSPYCVRDSGRR the amyloid nucleation score was -0.301 ± 0.65.
EYMFGYVSLSVDGSTLEFHD gave an amyloid nucleation score of 0.107 ± 0.24.
For RTMHVRFDIRKVALKIFKFY, the amyloid nucleation score was 1.3 ± 0.4.
For YYEMIFSWVTPHSYRDTSYC, the amyloid nucleation score was -0.733 ± 1.9.
Work on VLSVSCVRYISGVRERWYVL yielded an amyloid nucleation score of 1.23 ± 0.6.
RKFMDYSLKFSWRGVIPVMR gave an amyloid nucleation score of -1.83 ± 1.8.
ASLLSGQK showed an amyloid nucleation score of 0.358 ± 1.1.
For HLKGHFEGWGLIICVSSGFD, the amyloid nucleation score was 2.08 ± 0.14.
Work on HMADTRVADCSQLLR yielded an amyloid nucleation score of 0.409 ± 0.81.
Work on RVNMWRYI yielded an amyloid nucleation score of 0.295 ± 0.4.
Work on STHSDGVGML yielded an amyloid nucleation score of -0.805 ± 1.2.
For EVIAGCGLRCRSSNHIVREM, the amyloid nucleation score was 0.104 ± 0.36.
Work on LFSSYSLEE yielded an amyloid nucleation score of 1.1 ± 0.77.
In the case of LLIWRN, the amyloid nucleation score is reported as 0.995 ± 0.62.
Substance NTAFSERTWLVRFKMVPRWK has an amyloid nucleation score of 0.647 ± 0.83.
In the case of ILSERHWVFELYGLCGWRRE, the amyloid nucleation score is reported as 0.493 ± 0.52.
Work on VCVLFELMSKVKGQKARKDQ yielded an amyloid nucleation score of 0.425 ± 1.1.
Work on FSQRMGICYNVREFCNEFRC yielded an amyloid nucleation score of 1.47 ± 0.14.
